Assay results from patent US20240366624.
Changes are numbered by the printed parent chain.

B1: recombinant human ERO1α (endoplasmic reticulum oxidoreductase 1α), wild type (protein)
chain: EEQPPETAAQRCFCQVSGYLDDCTCDVETIDRFNNYRLFPRLQKLLESDYFRYYKVNLKRPCPFWNDISQCGRRDCAVKPCQSDEVPDGIKSASYKYSEEANNLIEECEQAERLGAVDESLSEETQKAVLQWTKHDDSSDNFCEADDIQSPEAEYVDLLLNPERYTGYKGPDAWKIWNVIYEENCFKPQTIKRPLNPLASGQGTSEENTFYSWLEGLCVEKRAFYRLISGLHASINVHLSARYLLQETWLEKKWGHNITEFQQRFDGILTEGEGPRRLKNLYFLYLIELRALSKVLPFFERPDFQLFTGNKIQDEENKMLLLEILHEIKSFPLHFDENSFFAGDKKEAHKLKEDFRLHFRNISRIMDCVGCFKCRLWGKLQTQGLGTALKILFSEKLIANMPESGPSYEFHLTRQEIVSLFNAFGRISTSVKELENFRNLLQNIH
B2: activity-null mutant ERO1α-Cys94Ser (protein)
chain: B1 chain with C71S

Biological target: wild type STIM1, recombinant, Q13586
Sequence (Q13586 23-213): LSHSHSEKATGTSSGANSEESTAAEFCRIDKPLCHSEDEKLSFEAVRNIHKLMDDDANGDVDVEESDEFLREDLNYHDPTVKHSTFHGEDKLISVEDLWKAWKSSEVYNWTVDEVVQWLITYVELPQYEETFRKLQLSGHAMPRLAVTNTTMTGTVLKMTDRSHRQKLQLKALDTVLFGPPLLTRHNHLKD

Row | Protein | N-ethylmaleimide labeling on the Cys49 residue in STIM1 (mass spectrometry)
1 | B1 | wtERO1α, but not mERO1α, decreased N-ethylmaleimide labeling on the Cys49 residue in STIM1 in a concentration-dependent manner
2 | B2 | wtERO1α, but not mERO1α, decreased N-ethylmaleimide labeling on the Cys49 residue in STIM1
